Assay results as given in the nanobody polyreactivity screen of Harvey et al. (2022).

Test: yeast display, Sf9 membrane polyspecificity reagent, FACS + sequencing; frameworks hold sequencing errors
Method in brief: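 After 36–48 hours of galactose induction, yeast (Saccharomyces cerevisiae BJ5465) displaying a synthetic nanobody library were stained at 4 °C for 1 hour with 10% biotinylated, detergent-solubilized Sf9 membrane reagent. Streptavidin microbeads enriched the stained cells before FACS sorting into low and high (top ~1%) gates on anti-HA and streptavidin fluorescence. Each clone's polyreactivity label reflects its gate of origin.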

| Sequence | polyreactivity (PSR sort gate) |
| --- | --- |
| QVQLVESGGGLVQAGGSLRLSCAASGFTFKLNAMGWYRPAPGKERELVAAISWGGGTTYYADSVKGRFTISRDNAKNTVYLQMNSLKPEDTAVYYCAADGTGTYDYWGQGTQVTVSS | low polyreactivity |
| QVQHVESGGGLVQAGGSLRLSCAASGYTFRSNTMGWYRQAPGKERELVAAISGRGSSTYYADSVKGRFTISRDNAKNTVYLQMNSLKPEDTAVYYCAAQSKYYQYYSWGQGTQVTVSS | high polyreactivity |
| QVQLVESGGGLVQAGGSLRLSCAASGSIFGRNTMGWYRPAPGKERELVAAISSGGRTYYADSVKGRFTISRDNAKITVYLQINSLKPEDTAVYYCAAALRRRRADFDYWGQGTQVTVSS | high polyreactivity |
| QVQLVESGGGLVQAGGSLRLSCSASGSIFAWYGRGWYRQSPGKESELVAAITSTGSTYYADSVKGRFTISRDNAKNTVYLQMTSLKPEDTAVYYCNAYYVYLWRPGVYWGQGTQVTVSS | low polyreactivity |
| QVKLVESGGGLVQAGGSLRLSCAASGSTFWGYAMGWYRQEPGKERELVATITTGGSTNYADSVKGRFTISRDNAKNTVYLQMNSLKPEDTAVYYCAKEVDPGSITSYGAGAHFGFDYWGQGTQVTVSS | low polyreactivity |
| HVQLVESGGGLVQAGGSLRLSCAATGRIFWLYAMGWYRQAPGKERELVAAISSGGSTSYADSVKGRFTISRDNAKNTVYVQMNSLKPEDTAVYYCNATLLFPQLDGPESGEFDYWGQGTQRTVSS | low polyreactivity |
| QVQLVESGGGLVQAGASLRLSCAASGSIFVRNAMGWYRQAPGKERELVAAISKRGTSTYFADSVKGRFTISRDNAKNTVYLQMNSLKPEDTAVYYCNAVLSNSRSYLIRLDYWGQGTQVTVSS | high polyreactivity |
| QVQLVESGGGLVQAGGSLRLSCAASGSIFPGYAMGWYRQAPGKERELVATITWSGGSTYYADSVKGRFTISRDNAKNTVYLQMNSLIPEDTAVYYCNADSNWYYQWNYYGLYDYWGQGTQVTVSS | low polyreactivity |
| QVQLVESGGGLVQAGGSLRLSCAASGRTFASNAMGWYRQAPGKERELVAAISSAGGTNYADSVKGRFTISRDNAKNTVYLQMNSLKPEDTAVYYCAAASPYYSYHRYIYYYWGQGTQVTVSS | high polyreactivity |
| QVHLVESGGGLVQAGGSLRLRCAASGFILGAYAMGWYRQAPGKERELDAAISYSGGRTYYADSVKGRFTISRDNAKNTVYLQMNSQNPEDTAVYYCAADWYYGYFFSVAGEHEYCGQGTQVTVSS | high polyreactivity |
| QVQLVESGGGLFQAGGRLRLSCAPSGGTLPKYAMAWYRHAPGKERELVARITWNDGTTYYADSVKGRFTISRDNAKNTVYLQMNSLIPEDTAVYYCNTDRAYWFLYPFSYYYWGQGTQVTVSS | low polyreactivity |
| QVHLVESGGGLVQAGGSLRLSCAASGRTFYTYAMGWYRQATGKERELVAVIRRDGSTSYADSVKGRFTISRDNAKNTVFLQKNSLKPEDTAVYYCAVTRRGEYYWGQGTQVTVSS | high polyreactivity |
| QVQLVESGGGLFQAGGSLRLRCAATGLIFDLYAMGWYRQAPGKERELVAVISYDGGSTYYADSVKGRFTISRDNAKNTVYLQMNSLKPEETAVYYCNTFDGLVSPSDLYDYWGQGTQVTVSS | low polyreactivity |
| QVQLVDSGGGLVQAGGSLRLSCAASGSIFYWYAMGWYRQAPGKERELVAAISWSGGSTFYADSVKGRFTISRDNAKNTVYLQMNSLKPEDTAVYYCAAETPYDYDYWGQGTQVTVSS | high polyreactivity |
| QVQLVESGGGLVQAGGSLRLSCAASGFIFAYYAMGWYRQAPGKETELVAAITWSGGRTYYADSVKGRFTISRDNSKNTVYLQMNSLKPEDTAVYYCNAVRPSVDYGYWGQGTQVTVSS | high polyreactivity |
| QVQLVESGGGLVQAGGSLRISCAASGFIFRSYAMGWDRKAPGKERELVAAITRSGGSTYYADSVKGRFTISRDNAKTTVYLQMNSLKPEDTAVYYCATRRYWYYILDYGGQGTQVTVSS | high polyreactivity |
| QVQLVESGGGLVQAGGSLRLSCAASGSIFTAYTMGWYRQAPGKERELVAAITERGGSTYYADSVKGRFTISRDNAKNTVYLQMNSMKPEDTAVYYCAASTLKDIYLWFRVDYWGQGTQVTVSS | low polyreactivity |
| QVQLVESGGGLVQAGGSLRLSCAASGGTFRRNAMGWYRQAPGKERELVAAISFNGDRTYYADSVKGRFTISRDNAKNTVYLQMNSLKPEDTAVYYCNKASWWWGGYTYPHEYWGQGTQVTVSS | low polyreactivity |
| QVQLVESGGGLVQAGGSLRLSCAASGSIFKTYAMGWYRQAPGKERELVAAISWRGGSTYYADSVKGRFTISRDNAKNTVYLEMNSLKPEDTAVYYCAAGRKFGTRTLWYRYGYWGQGTQVTVSS | high polyreactivity |
| QVQLVESGGGLVQAGGSLRLSCASSGSIFEGYVMGWYRQAPGKERELVAAITTGGGSTYYADSVKGRFTISRDNAKNTVYLQMTSLKPEDTAVYYCAKDYWFGYEYWGQGTQVTVSS | low polyreactivity |
| QVQLVESGGGLVQAGGSLRLSCAASGSIFDYNAMGWYTQAPGKERELVAAITSGGSTNYADSVKGRFTISRDNAKNTVYLQMNSLKPEDTAVYYCAADHDYYPSNLDYWGQGTQVTVSS | low polyreactivity |

| Sequence | polyreactivity (PSR sort gate) |
| --- | --- |
| QVQLVESGGGLVQAGGSLRLSCAASGLTFVFYAMGWYRQAPGKERELVAAISSSGGSTNYADSVKGRFTISRDNAKNTVYLQMNSLKPEDTAVYYCNAALLGKQYYSNPNYDYWGQGTQVTVSS | high polyreactivity |
| QVQLEESGGGLVQAGGSLRIICADSGINFRYNAMGLYRKAPGKERELVAGIRKRGGSTYYADSVKGRFTISRDNANNTVYLQMNSLKPEDTEVYYCAALCPTTGRNYHSTPYEYWGQGTQVTVSS | high polyreactivity |
| QVQLVESGGGLVQAGGSLRLSCAASGIIFGWYAMGWYRQAPGKERELVAAITWSGASTYYADSVKGRFTISRDNAKNTVYLQMNSLKPEDTAVYYCAAESVDNIYYGFDYWGQGTQVTVSS | high polyreactivity |
| QVQLVESGGGLVQAGGSLRLSCAASGRTFWGYAMGWYRQAPGKERELVATISSTGSTNYADSVKGRFTISRDNAKNPVYLQMNSLKPEDTAVYYCNAKRHLYRGWYQRYDYWGQGTQVTVSS | high polyreactivity |
| QVQLVESGGGLVQAGGSLRLSCAASGSIFGRNTMGWYRQAPGKERELVAAISSSGGSTRYADSVKGRFTISRDNAKITVYLQMNSLKQEDTAVYYCNDRPRTIYVNRKYDYWGQCTQVTVSS | high polyreactivity |
| QVQLVESGGGLVQAGGSLRLSCAASGRIFRLYAMGWYRQAPGKERELVAAISKSGGSTYYADSVKGRFTISRDNAKYTVYLQMNSLNPEDTAVYYCAADYRTHGGYVGTFDYWGQGTQVTVSS | low polyreactivity |
| QVQLVESGGGIVQAGGSLRLSCAASGSNLQYKAMGWYRQAPGKERELVADITSSGGSTYYADSVKGRFTISRDNAKNTVYLQMNSLKPEDTAVYYFAKDTHWAYYWGQGTQVTVSS | low polyreactivity |
| QVQLVESGGGLVQAGGSLRLSCAASGRTFFWYAMGWYRQAPGKERELVAGISRGGRTNYADSVKGRFTISRDNAKNTVYLQMNSLKPEDTAVYYCAADSWLTYFLGTSEHYYWGQGTQVTVSS | high polyreactivity |
| QVQLVESGGGLVQAGGSLRLSCAASGSIFERYAMVWYRQAPGKERELVAAISWSGSSTYYADSVKGRFTISRDNAKNTVYLQMNSLKPEDTAVYYCNKVWIDTGMEYWGQGTQVTVSS | low polyreactivity |
| QVPLVESGGGLVQAGGSLRLSCAASGSTLAANAMGWYRQAPGKERELVAAIDGGGSTYYADSVKGRFTISRDNAKNTVYLQMNILKPDDTAVYYCATPYVWTITQKKYDYWGQGTQVTVSS | low polyreactivity |
| QVQRVESGGGLVQAGGSLRLSCAASGSTFYRYAMVWYRQAPGKERELVATISGGGRTNYADSVKGRFTISRDNAKNTVYLQMNSLKPEDTAVYYCAVDSSSPYDYWGQGTQVTVSS | high polyreactivity |
| QVQLVESGGGLVQAGGSLRLSCAASGSTFDYYSMGWYRQAPGKERELVAAISYSGSRTYYADSVKGRFTISRDNAKNTVYLQMNSLKPEDTAVYYCAARRGYVKGKTYDYWGQGTQVTVSS | high polyreactivity |
| QVQLVESGGGLVQAGGILRLSCAASGFTFYRNAMGWYRQAPGKERELVAAISIRSGRTYYADSLKGRFTISRDNAKNSVYLQMNSLKPEDTAVYYCNKVRLPRDPYNYWGQGTQVTVSS | high polyreactivity |
| QVQLQERGGGLVQAGGSLRQRCAASRNISASSDLGWYHQAPGKEREFVASITSGGTTYYADSVKGRFTISRDNAKNTVYLQMNSLKPEDTAVYYCAVGDPADAEFGYWGKGTQVTVSS | low polyreactivity |
| QVQLVESGGGLVQAGGSLRLSCAASGRIFQKYAMGWYRQAPGKESELVAAISSGDSTYADSVKGRFTISRDNAKNTVYLQMNSLIPEDTAVYYCAVDLYDPWWYSYIGEYEYWGQGTQVSVSS | low polyreactivity |
| QVQLVESGGGLVQAGGSLRLSCAASGRTFYSYAMGGYRQAPGKERELVARITWSGGTYYADSVKGRFTISRDNAKNTVYLQMNSLKPEDTAVYYCAAKYWKWYHYGFGYWGQGTQVTVSS | high polyreactivity |
| QVQLVESGGGLVQAGGSLRLSCAASGSIFYLYAMGWYRQAPGKESELVAAITSGDSTTYADSVKWRFTISRDYAKNTVYLQMNSLKPEDTAVYYCAADWPGLVGYHNSAENDYWGQGTQVTVSS | low polyreactivity |
| QVQLVESGGGLVQAGGSLRLSCAASGYTFAFYAMGWYRQAPGKERELVAAISAGGGRTYYADSVKGRFTISRDNAKNTVYLQMNSLKPEDTAVYYCATDLIQGAAPFRYDYWGQGTQVTVSS | low polyreactivity |
| QVQLVESGGGLVQAGGSLRLSCAASGSIFFWNTMGWYRQAPGKERELVAAISSGGSTYYADSVKGRFTISRDTAKNTVYLQMNSLRPEDTAVYYCAAVYSGLYSYYYWGQGTQVTVSS | low polyreactivity |
| QVQLVESGGGLVQAGGSLRLSCAASGRTFVYYAMGWYRQAPGKERELVAAISSRGGSTYYADSVKGRFTISRDYAKNTVYLQMNSLKPEDTAVYYCAARARRRYYYWGQGTQVTVSA | high polyreactivity |
